# Data published in the DeepSol protein solubility set.
# Test: soluble on expression in E. coli; label from the status in PepcDB or PDB records
row,Sequence,soluble on expression in E. coli
1,MALVVQKYGGSSLESAERIRNVAERIVATKKAGNDVVVVCSAMGDTTDELLELAAAVNPVPPAREMDMLLTAGERISNALVAMAIESLGAEAQSFTGSQAGVLTTERHGNARIVDVTPGRVREALDEGKICIVAGFQGVNKETRDVTTLGRGGSDTTAVALAAALNADVCEIYSDVDGVYTADPRIVPNAQKLEKLSFEEMLELAAVGSKILVLRSVEYARAFNVPLRVRSSYSNDPGTLIAGSMEDIPVEEAVLTGVATDKSEAKVTVLGISDKPGEAAKVFRALADAEINIDMVLQNVSSVEDGTTDITFTCPRSDGRRAMEILKKLQVQGNWTNVLYDDQVGKVSLVGAGMKSHPGVTAEFMEALRDVNVNIELISTSEIRISVLIREDDLDAAARALHEQFQLGGEDEAVVYAGTGR,soluble
2,MALYQRWRCLRLQGLQACRLHTAVVSTPPRWLAERLGLFEELWAAQVKRLASMAQKEPRTIKISLPGGQKIDAVAWNTTPYQLARQISSTLADTAVAAQVNGEPYDLERPLETDSDLRFLTFDSPEGKAVFWHSSTHVLGAAAEQFLGAVLCRGPSTEYGFYHDFFLGKERTIRGSELPVLERICQELTAAARPFRRLEASRDQLRQLFKDNPFKLHLIEEKVTGPTATVYGCGTLVDLCQGPHLRHTGQIGGLKLLSNSSSLWRSSGAPETLQRVSGISFPTTELLRVWEAWREEAELRDHRRIGKEQELFFFHELSPGSCFFLPRGTRVYNALVAFIRAEYAHRGFSEVKTPTLFSTKLWEQSGHWEHYQEDMFAVQPPGSDRPPSSQSDDSTRHITDTLALKPMNCPAHCLMFAHRPRSWRELPLRLADFGALHRAEASGGLGGLTRLRCFQQDDAHIFCTTDQLEAEIQSCLDFLRSVYAVLGFSFRLALSTRPSGFLGDPCLWDQAEQVLKQALKEFGEPWDLNSGDGAFYGPKIDVHLHDALGRPHQCGTIQLDFQLPLRFDLQYKGQAGALERPVLIHRAVLGSVERLLGVLAESCGGKWPLWLSPFQVVVIPVGSEQEEYAKEAQQSLRAAGLVSDLDADSGLTLSRRIRRAQLAHYNFQFVVGQKEQSKRTVNIRTRDNRRLGEWDLPEAVQRLVELQNTRVPNAEEIF,soluble
3,MAMRHLSRSRDVTKRSTKKYIEEPLYNRLFKDGGTEVKVRQQLNQFLKGTKHVFKWEVGDTIKKLRNRGLYYPALKLSEVMEERGMNKTVSDQAIHLDLVAKAREITAGENYFVDLPETSKTELTYGSLLNCYCKELLTEKAEGLLNKMKELNITPSSMSYNSLMTLYTKTGETEKVPAMIQELKAENVMPDSYTYNVWMRALAATNDISGVERVIEEMNRDGRVAPDWTTYSNMASIYVDAGLSQKAEKALQELEMKNTQRDFTAYQFLITLYGRLGKLTEVYRIWRSLRLAIPKTSNVAYLNMIQVLVKLNDLPGAETLFKEWQANCSTYDIRIVNVLIGAYAQEGLIQKANELKEKAPRRGGKLNAKTWEIFMDYYVKSGDMARALECMSKAVSIGKGDGGKWLPSPETVRALMSYFEQKKDVNGAENLLEILKNGTDNIGAEIFEPLIRTYAAAGKSHPAMRRRLKMENVEVNEATKKLLDEVSQDV,soluble
4,MAMTLAEKILAKASGNTQVSPGDIVMAKVETAMVHDITGPLSVNTLKKEGISKVWDNEKIVIPFDHQIPADSINAAENHILMRNFVKEQNIKHFYDIREGVCHQVLPEKGHIVPGTVVVGADSHTCTYGAFGAFATGIGSTDMAAAFATGELWFKVPET,not soluble
5,MAMYEQRYNSPFLVHDDGPNAPLEHQFAISKLTFELGLLYYQKRTIPFIPLPETPLNEGPGHAVPDVILYDAVAEDTKVIIEVCQNNGQKNDLKKVIRLIEDTEYGILEGFVYNYKSREWFRYRKGDGGAATASSVSEVMGIDMGGFV,not soluble
6,MANFIEKITYLGTPAIKAGNEHLEMIVVPEWGSNVISLVDKTTNVQLLREPETAESFHDTPTLYGIPILFPPNRISDGTFSFRGRTYHFDINEKDKHNHLHGFLYHEKWNVVTTKQTDEGVIVETEIDLSELPHVQKQFPHHAVVRMTYTIKENTLFKHATVMNKGKEAFPWGIGYHTTFIFPAESSLFSLTADQQWELDERLLPTGKLMDVPYKEALHEGMDLRHKQLDDVFLSSYQKRGGENQAVIYHQHAHISIIYKADEQFKHWVVYNADGKQGYLCPEPYTWVTNAVNLDLPSSLTGLQVLEPGEETTAKSSITIELNHQLEHHHHHH,soluble
7,MANGKSKNTKKDGVDKKKTSKTKKKSNLSISKSQTSVDMNEKDKSKEAKEAKELKEKKAKEEAEKKVVATPKKDASKDQAKKEEDPNKQNEPSGMDVLVKEDGKKTKMDDGYEDFGPGAGAAQ,not soluble
8,MANLDDELALFESELAELEQASSNSEEPASSQTHVGYDNATISAGPTTSESSAATSSAQVIQPSLLAAPPFIPIAATIAVSPFINPALGRLPTMPPVPPSIFMPPQLRAAPIMFPPRVLGIPAPATIEGAPALYETPAVNAIPQELLRTQALQSDIDKMNFKKQTDPFKKKIKEQQAKKKFVRSGGGQVWEDPSLAEWDENDFRVFCGDLGNEVSDELLAKAFRKYPSFQKAKVVRESRTNKSKGYGFVSFRDSEDYVRAMREMDGKYVGNRPIKLRKSAWKERNIDVIKQKRKQKKELGIL,soluble
9,MANSETSLQARLWKTLSQSPDVRLWRNNVGTCKAADGRFVRFGLCPGSSDLIGLTRVTITPDMVGQTIALFTAIEVKTPTGRVTPEQQSFIDFVQRSGGRAGVARSMQDANKIISGEGHVLEHHHHHH,not soluble
10,MANTLFDKIWDAHVVQKVEEGPTQLYIDRLYCHEVTSPQAFAGLRARGVKVFRPDHVYCMPDHNTPTHDQDKPIEDPVSKTQVDTLAKNAKDFGLAHFGMMDKRNGIIHVVGPERGLTLPGMTIVCGDSHTSTHGAMGAVAFGIGTSEVEMVLASQCILQSRPKT,not soluble
11,MANVAFGFQEAVFTLESMVANIERQAQTIEKLINENKQLRQENQQLKARIAELEARTKKNSTNSHFPPSSDRFGAKSPSRPPSEKRPGGQPGHQGTTLRQSPNPDHRVLHRVTQCKGCGHSLEHIDPLQVDIRQVFDLPVVRMEVTQHEREIKRCPECRLVQQAEFPFYVTNHVQYGPAVTSLILYWNHAQLIPCERVTEMVKALTGHSMSAGTVVNMTRRWQPVAEAAIEEIEAALLTSSTLHVDETSLRVKGTKQWVHVASTSKETRYGIHRSRGKQATDDIGILPRYKGTMVHDAYAVYPMYTQASHALCHAHHLRELREYTELYHHSWSNKMAEALLEMKQAVEKAGGALPEEKVRYWEAVYDELLSNGRQELDERCRQGNYLGVRKAEHFIRRLEKRKQEALLFLRKKEVPFDNNQAERDLRMVKVKQKISGTFRQEDDAEAFCVIRSVVSTLQKHGKPVWESLQRLLSGESLQTILQSS,not soluble
12,MANVQSGKMIVGLDIGTSKVVALVGEVAADGSLEIVGIGTHPSRGLKKGVVVNIESTVQSIQRAIEEAQLMAGCRIHSAFVGVAGSHIRSLNSHGIVAIRDREVSAADLERVLDAAQAVAIPADQ,not soluble
13,MAPENHDGEKHFAEIVKDFGETSMNDNGLDTGEQAKAFAWGKVRDALSQQVNQHVESWLSPWGNASVDVKVDNEGHFTGSRGSWFVPLQDNDRYLTWSQLGLTQQDNGLVSNVGVGQRWARGNWLVGYNTFYDNLQDENLQRAGFGAEAWGEYLRLSANFYQPFAAWHEQTATQEQRMARGYDLTARMRMPFYQHLNTSVSLEQYFGDRVDLFNSGTGYHNPVALSLGLNYTPVPLVTVTAQHKQGESGENQNNLGLNLNYRFGVPLKKQLSAGEVAESQSLRGSRYDNPQRNNLPTLEYRQRKTLTVFLATPPWDLKPGETVPLKLQIRSRYGIRQLIWQGDTQILSLTPGAQANSAEGWTLIMPDWQNGEGASNHWRLSVVVEDNQGQRVSSNEITLTLVEPFDALSNDELRWEP,not soluble
14,MAPKAEKKPSEKAPKADKKITKEGGSERKKKTKKSTETYKIYLFKVLKQVHPDIGISGKAMGIMNSFINDTFEKIALESSRLARYNKKPTITSREIQTAVRLVLPGELAKHAVSEGTKAVTKFTSS,not soluble
15,MAPLGASPRLVLLFSGKRKSGKDFVTERLKSRLGGNICALLRLSGPLKEEYAREHGLDFQRLLDASTYKETYRRDMICWGEQKRQADPGFFCRKIVEGVSQPIWLVSDTRRTSDIQWFQEAYGAVIQTVRVVASEQSRQQRGWVFTLGVDDAESECGLDNFGNFDWVIENHGDEQCLEDQLEHLLGFIQAKL,soluble
16,MAPLNYKTITSRSILSKVLVRATQQWPTDKTLNKQLSELYGAYVNSFVSKFKDKHVITISLEVVNEKFLKDKTPLFEKGLDTLKEIIWNPLIKDRCFDHTYVAQEKSLLSKKLEAMEDNKAQYSFLQLMNYMFKQEPYRYIATGQLEQIPQVTSESLYDTYLSMVQNDDCAIYVVGNINKEEVTQLILDKFAIKPFYLENKESTEITPSFDQPQYIIEKDDVDQAKLNLGYRFPSYYGKSNYYAFIVLNMMFGGDPSSVLFNEVREKQSLAYSIHSQIDGKNGFLFVLSGVSAEKYEQAKDTVIKEFDKIKNGDFDSNKIELAKKIIISHRHEASDRPKSIIEILHNQLLLNRQQTDQDFINAVNQVTKKDVIKLANEAVLDTIYVLTKGDQH,not soluble
17,MAQHPPYCRNQPGKCQIPLRDLFDRAVVLSHYIHNLSSEMFSEFDKRYTHGRGFITKAINSCHTSSLATPEDKEQAQQMNQKDFLSLIVSILRSWNEPLYHLVTEVRGMQEAPEAILSKAVEIEEQTKRLLEGMELIVSQVHPETKENEIYPVWSGLPSLQMADEESRLSAYYNLLHCLRRDSHKIDNYLKLLKCRIIHNNNC,soluble
18,MAQISGNQTGIGSIHPLLHQNTSDFSEQKFSSVFTGDEFFLRDHVVRGKPVLPGVAYLEMAYAAINQAAGSEIGQDVRIRLNHTVWVQPVVVDRHSAQVDISLFPEEDGKITFDIYSTQEDGDDPVIHSQGSAELASAAETPVADLTEMSRRCGKGKMSPDQFYEEGRSRGMFHGPAFQGIKNVNIGNREVLAQLQLPEIVSGTNEQFVLHPSIMDSALQTATICIMQELTDQKLILPFALEELEVIKGCSSSMWAYARLSDSDHSGGVVQKADIDVIDESGTVCVRIKGFSTRVLEHHHHHH,soluble
19,MAQLAKTAVAALSKKLVAPAAVARRTLATEASPEDYGYYPDPLEHATGREKKMLLARLAGDDRYEPKVYYRAEASTKQKPNLVPSHYDFRIIGCMCEQDSGHVNFMTIRKGDPKRCECGHWFKGVDADPESI,not soluble
20,MAQLFFKYGAMNSGKTIEILKVAHNYEEQDKPVVLMTSGLDTRDGVGKVSSRIGLRRDAIPIFEETNVFDLINDLSYKPFCVLVDECQFLNKHHVIEFARIVDELDIPVMAFGLKNDFRNELFEGSKYLLLYADKLEELKTICWFCHKKATMNLHYIDGNPVYEGDQVQIGGNEAYYPVCRKHYFHPKTVNEEQ,not soluble
21,MAQLTHINAAGEAHMVDVSAKAETVREARAEAFVTMRSETLAMIIDGRHHKGDVFATARIAGIQAAKRTWDLIPLCHPLMLSKVEVNLQAEPEHNRVRIETLCRLTGKTGVEMEALTAASVAALTIYDMCKAVQKDMVIGPVRLLAKSGGKSGDFKVEADD,soluble
